Key:
[1] = target: L68V CzrA (Staphylococcus aureus); assay: SEC
[2] = target: L68A CzrA (Staphylococcus aureus); assay: SEC
[3] = target: V66A/L68V CzrA (Staphylococcus aureus); assay: SEC
[4] = target: V66A CzrA (Staphylococcus aureus); assay: SEC
V66A CzrA = V66A CzrA (Staphylococcus aureus, UniProt O85142 1-106, V66A); assay: fluorescence anisotropy
H96C CzrA = H96C CzrA (Staphylococcus aureus, UniProt O85142 1-106, H96C); assay: fluorescence anisotropy

## L68V CzrA (natural protein)
[1]
  stoichiometry N: 2

## L68A CzrA (natural protein)
[2]
  stoichiometry N: 2

## V66A/L68V CzrA (natural protein)
[3]
  stoichiometry N: 2

## V66A CzrA (natural protein)
[4]
  stoichiometry N: 2

B1: 28-bp native CzrO (dsDNA)
DNA 1: TAATATATGAACAAATATTCAGATGAAA
DNA 2: TTTCATCTGAATATTTGTTCATATATTA
V66A CzrA
  binding signal: 460 fold tighter than Zn2 wild-type CzrA
H96C CzrA
  binding result: binds

Source: article PMC3602352
